{
  "source": "paper PMC5765332",
  "about": "“Evaluation of the Possible Utilization of ^68Ga-DOTATOC in Diagnosis of Adenocarcinoma Breast Cancer” (Asia Oceania Journal of Nuclear Medicine and Biology, 2018)",
  "key": {"in vivo [1]": {"assay": "in vivo", "design": "species or system BALB/c mice", "conditions": "female, BALB/c, mouse, iv, 5.55 MBq, total radioactivity", "method": "A few BALB/c mice that previously injected with spontaneous Murine Mammary Adenocarcinoma Cells (MMAC) which has been histopathologically approved for invasive ductal carcinoma, grade II/III, ([18]) were provided from Pasteur Institute, Tehran, Iran. These mice breast tumor model were used for development of the tumor allograft in other healthy Balb/c mice. For this purpose, the tumor allograft development was performed according to the previously reported procedure ([19]). Adenocarcinoma breast tumors of the mice were brought out and divided to 2–3 mm^3 segments. These segments were implanted percutaneously in the right side of the flank of inbred female BALB/c mice (16–25 g, 6–8 weeks old, Pasteur Institute, Tehran, Iran). 24-31 days post implantation, the tumor volume reached 70–80 mm^3. 5.55 MBq of final ^68Ga-DOTATOC solution was injected intravenously into the mice through their tail veins. Static PET images were captured for 10 min with three sets of emission images starting 30, 60 and 120 min post injection. In addition, PET emission scans were preceded by CT scans performed for anatomical reference and attenuation correction (spatial resolution 1.25 mm, 80 kV, 150 mAs) with a total CT scanning time of 20 s. Reconstruction was performed using the iterative algorithm with attenuation correction. The reconstruction settings were 4 iterations and 21 subsets to a 256×256 matrix, with a post-filtering of 2 mm. Transmission data were reconstructed within a matrix of equal size by means of filtered back-projection, yielding a co-registered image set. The reconstructed emission images were reformatted into coronal, sagittal and maximum intensity projection (MIP) image sets. Maximum, average and minimum standardized uptake values (SUV) for the observable organs in the images were calculated based on the region of interest (ROI) and according to Eq. 1: where C is the tissue radioactivity concentration (kBq/mL), I is the decay-corrected amount of injected radiolabeled complex [kBq], and w is the weight (g)."}, "in vivo [2]": {"assay": "in vivo", "design": "species or system BALB/c mice", "conditions": "female, BALB/c, mouse, iv, 5.55 MBq, total radioactivity", "method": "(§1) A few BALB/c mice that previously injected with spontaneous Murine Mammary Adenocarcinoma Cells (MMAC) which has been histopathologically approved for invasive ductal carcinoma, grade II/III, ([18]) were provided from Pasteur Institute, Tehran, Iran. These mice breast tumor model were used for development of the tumor allograft in other healthy Balb/c mice. For this purpose, the tumor allograft development was performed according to the previously reported procedure ([19]). Adenocarcinoma breast tumors of the mice were brought out and divided to 2–3 mm^3 segments. These segments were implanted percutaneously in the right side of the flank of inbred female BALB/c mice (16–25 g, 6–8 weeks old, Pasteur Institute, Tehran, Iran). 24-31 days post implantation, the tumor volume reached 70–80 mm^3. 100 μL of the radiolabeled complex with approximately 5.55 MBq radioactivity was injected intravenously into the BALB/c mice with adenocarcinoma breast cancer through their tail vein. The total amount of radioactivity injected into each animal was measured by counting the 1-mL syringe before and after injection in a dose calibrator with the fixed geometry. Biodistribution of the complex among tissues was determined by sacrificing the BALB/c mice at each selected time (15, 30 and 60 m) after injection using the animal care protocols. Blood samples were rapidly taken after scarification. The tissues (heart, kidneys, spleen, stomach, intestine, lung, liver, skin, bone, muscle, adrenal, pancreas and tumor) were weighed and rinsed with normal saline and their activities were determined with a p-type coaxial HPGe detector coupled with a multichannel analyzer. The percentage of injected dose per gram (%ID/g) for different organs was calculated by dividing the activity amount of each tissue (A) to the decay-corrected injected activity and the mass of each organ. Four […] were considered for each time interval. All values were expressed as mean ± standard deviation (Mean±SD) and the data were compared using Student’s T-test. P values of < 0.05 were considered statistically significant.", "remark": "listed apart in the source"}, "[3]": {"system": "BALB/c mice with adenocarcinoma breast cancer", "assay": "in vivo", "conditions": "mouse, iv", "method": "as §1"}},
  "data": [
    {"smiles": "C[C@@H](O)[C@@H]1NC(=O)[C@H](CCCCN)NC(=O)[C@@H](Cc2c[nH]c3ccccc23)NC(=O)[C@H](Cc2ccc(O)cc2)NC(=O)[C@@H](NC(=O)[C@@H](Cc2ccccc2)NC(=O)CN2CCN(CC(=O)O)CCN(CC(=O)O)CCN(CC(=O)O)CC2)CSSC[C@@H](C(=O)N[C@H](CO)[C@@H](C)O)NC1=O", "note": "[^68Ga-DOTATOC, metal not drawn]", "values": [
      {"measurement": "SUV at 0.5 h", "setting": "in vivo [1]", "value": 0.66, "unit": "SUV"},
      {"measurement": "SUV at 1 h", "setting": "in vivo [1]", "value": 0.28, "unit": "SUV"},
      {"measurement": "SUV at 2 h", "setting": "in vivo [1]", "value": 0.18, "unit": "SUV"},
      {"measurement": "tissue to tissue ratio at 0.25 h", "setting": "in vivo [2]; Tumor/blood ratio", "value": 2.38},
      {"measurement": "tissue to tissue ratio at 0.5 h", "setting": "in vivo [2]; Tumor/blood ratio", "value": 3.37},
      {"measurement": "tissue to tissue ratio at 1 h", "setting": "in vivo [2]; Tumor/blood ratio", "value": 9.92},
      {"measurement": "tissue to tissue ratio at 0.25 h", "setting": "in vivo [2]; Tumor/muscle ratio", "value": 18.7},
      {"measurement": "tissue to tissue ratio at 0.5 h", "setting": "in vivo [2]; Tumor/muscle ratio", "value": 20.8},
      {"measurement": "tissue to tissue ratio at 1 h", "setting": "in vivo [2]; Tumor/muscle ratio", "value": 19.8},
      {"measurement": "blood clearance (in words)", "setting": "[3]", "value": "fast blood clearance"}
    ]}
  ]
}
